Patent CN116836274A (DONGGUAN PENGZHI BIOTECHNOLOGY CO LTD, dated 2023)
Numbering of substitutions follows the chain as printed.

T1: 血清淀粉样蛋白A (Serum amyloid A, SAA), 购自Yashraj biotechnology limited, 货号FRSAA-61 (UniProt P0DJI8 19-122, limits assumed)
T1 construct: Bought antigen
T1 sequence (looked up): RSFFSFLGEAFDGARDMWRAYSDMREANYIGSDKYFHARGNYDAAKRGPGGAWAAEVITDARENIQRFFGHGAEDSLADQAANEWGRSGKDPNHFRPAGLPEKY

B1: Anti-SAA-11A4mut1 (antibody, mouse IgG1, kappa, V domains shown)
VH: QVQLQQSGAELVRPGVSVKISCKGSGYTFTDYAMHWVKQSHAKSLEWIGVINTYYGDASYNQKFKGKATMTEDKSSSTVYMELARLTSEDSAIYYCARGSSIMITSWFAYWGQGTLVTVSA
VL: DIQMTQSPASLSASVGETVTITCRASENIYSYLAWYQQKQGKSPQLLVYNAKTLAEGVPSRFSGSGSGTQFSLKINSLQPEDFGSYYCQHHYGTPLTFGTGTKLELKR
B2: Anti-SAA-11A4mut3 (antibody, V domains shown)
VH: B1 VH
VL: B1 VL with L96I
B3: Anti-SAA-11A4mut2 (antibody, mouse IgG1, kappa, V domains shown)
VH: B1 VH with I102L
VL: B1 VL

Legend:
[1] = target: 血清淀粉样蛋白A (Serum amyloid A, SAA), 购自Yashraj biotechnology limited, 货号FRSAA-61 (UniProt P0DJI8); test: biosensor with AMC sensors, antibody captured at 10 ug/ml, SAA in a dilution series in PBST
[2] = target: T1, 血清淀粉样蛋白A (Serum amyloid A, SAA), …; test: as above

Molecule	Kd [1] [nM]	koff [1] [s⁻¹]	kon [1] [M⁻¹ s⁻¹]	Kd [2] [nM]	koff [2] [s⁻¹]	kon [2] [M⁻¹ s⁻¹]
对照 (antibody)	9.01	0.000219	24300	–	–	–
B1	–	–	–	0.0322	1.12e-06	34800
B2	–	–	–	0.0386	1.3e-06	33700
B3	–	–	–	0.827	3.05e-05	36900
